Data set [1] concerns the target T1, SLBP (HBP), His-tagged (human, UniProt Q14493 1-270). Put plainly: competition.
Data set [2] concerns the target T1, SLBP (HBP), His-tagged. Put plainly: competition. The source holds these as a separate data set.

The text below walks through data of article PMC1635294.

Read-outs that look alike come from different tables or passages of the source.

In the case of GGAGCUCAACAAAAGGCCCUUUUCAGGGCCACCC (structured_RNA) [wild-type stem-loop competitor], the binding result in data set [1] is given as “binds”.
Consider GGAGCUCAACAAAACCGGAAAGCCUUCCGGACCC (structured_RNA) [mutated stem-loop competitor (*)], for which, in data set [2], the binding result is on record as “no binding”.
